The source of these data is publication PMC4674748, “Identification of the Replication Origins from Cyanothece ATCC 51142 and Their Interactions with the DnaA Protein: From In Silico to In Vitro Studies”.

This data set concerns the target T1, His6-DnaA (IV) (Cyanothece ATCC 51142, UniProt B1X0X6 331-455).
T1 sequence: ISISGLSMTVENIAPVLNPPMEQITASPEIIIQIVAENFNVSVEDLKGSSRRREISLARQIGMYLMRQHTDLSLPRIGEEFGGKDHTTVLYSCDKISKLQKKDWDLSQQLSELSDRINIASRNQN
The experiment in a line: EMSA; 5-100 nM protein; 3 mM ATP, poly(dI-dC); better affinity than Lbox23; EMSA: 20 mM Hepes/KOH pH 8.0, 5 mM Mg acetate, 1 mM Na2EDTA, 4 mM DTT, 0.2% Triton X-100, 3 mM ATP, 5 mg/mL BSA, poly(dI-dC), 37 C 30 min; footprint: 25 C 30 min, 400 ng probe in 40 uL. The note with it: protein: recombinant; tags: N-terminal His6 (pET-28a, BamHI/HindIII); blunt. Background: Mobility shift assays separate free from complexed probe on a gel.

B1: Cbox23 (2Box2B, 35 nt) (dsDNA)
DNA 1: CCTTTAAATTTTTCCACAGTTTTTCCACAGCATTA
DNA 2: TAATGCTGTGGAAAAACTGTGGAAAAATTTAAAGG
For the molecule B1, the binding result is “binds”.
